Experimental data published in publication PMC12783686, “β-catenin condensation facilitates clustering of the cadherin/catenin complex and formation of nascent cell-cell junctions” (Nature Communications, 2025).

Target: T1, mCherry-α-catenin (UniProt P26231 1-906)
T1 construct: Monomeric pool from gel filtration; source: E. coli CK600K or BL21-DE3 Star, purified (Glutathione Sepharose, TEV protease cleavage, gel filtration; the monomeric pool was collected); not shown: GST (from the vector pGEX-2T); mCherry, N-terminal, kept
T1 sequence (looked up): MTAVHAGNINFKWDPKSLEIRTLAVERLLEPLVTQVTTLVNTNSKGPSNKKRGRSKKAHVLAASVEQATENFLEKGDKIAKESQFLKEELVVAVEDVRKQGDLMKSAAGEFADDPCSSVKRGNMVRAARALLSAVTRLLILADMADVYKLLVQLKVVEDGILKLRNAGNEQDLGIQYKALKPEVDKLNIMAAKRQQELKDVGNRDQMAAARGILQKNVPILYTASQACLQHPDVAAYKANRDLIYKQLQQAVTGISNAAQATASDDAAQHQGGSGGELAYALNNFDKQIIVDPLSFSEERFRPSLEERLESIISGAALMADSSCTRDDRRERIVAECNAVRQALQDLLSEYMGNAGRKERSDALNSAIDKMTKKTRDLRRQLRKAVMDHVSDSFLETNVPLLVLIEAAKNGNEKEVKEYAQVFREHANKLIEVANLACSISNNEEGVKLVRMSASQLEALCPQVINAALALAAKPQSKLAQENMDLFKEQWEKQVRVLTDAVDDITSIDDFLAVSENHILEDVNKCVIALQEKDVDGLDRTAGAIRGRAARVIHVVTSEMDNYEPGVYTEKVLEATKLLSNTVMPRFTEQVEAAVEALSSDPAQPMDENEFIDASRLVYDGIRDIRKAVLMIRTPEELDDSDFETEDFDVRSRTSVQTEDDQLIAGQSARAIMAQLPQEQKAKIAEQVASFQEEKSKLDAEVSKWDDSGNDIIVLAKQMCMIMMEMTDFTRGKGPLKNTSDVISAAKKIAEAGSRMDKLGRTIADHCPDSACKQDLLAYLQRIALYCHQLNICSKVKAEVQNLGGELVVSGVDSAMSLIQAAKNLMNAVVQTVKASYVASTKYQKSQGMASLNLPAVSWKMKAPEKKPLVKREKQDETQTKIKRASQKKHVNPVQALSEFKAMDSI
Test: droplet co-partition assay (confocal microscopy); purified fluorescent proteins mixed at equimolar 1 μM with mEGFP-β-catenin (Wt or IDRs*) in droplet formation buffer (50 mM Tris-HCl pH 7.5, 125 mM NaCl, 10% glycerol, 1 mM DTT); droplets induced with 10% PEG-8000; fluorescence inside β-catenin droplets
Details: both partners purified

binding result: binds
B1: mEGFP-β-catenin^Wt (natural protein, UniProt P35222 1-781, looked up)
chain: MATQADLMELDMAMEPDRKAAVSHWQQQSYLDSGIHSGATTTAPSLSGKGNPEEEDVDTSQVLYEWEQGFSQSFTQEQVADIDGQYAMTRAQRVRAAMFPETLDEGMQIPSTQFDAAHPTNVQRLAEPSQMLKHAVVNLINYQDDAELATRAIPELTKLLNDEDQVVVNKAAVMVHQLSKKEASRHAIMRSPQMVSAIVRTMQNTNDVETARCTAGTLHNLSHHREGLLAIFKSGGIPALVKMLGSPVDSVLFYAITTLHNLLLHQEGAKMAVRLAGGLQKMVALLNKTNVKFLAITTDCLQILAYGNQESKLIILASGGPQALVNIMRTYTYEKLLWTTSRVLKVLSVCSSNKPAIVEAGGMQALGLHLTDPSQRLVQNCLWTLRNLSDAATKQEGMEGLLGTLVQLLGSDDINVVTCAAGILSNLTCNNYKNKMMVCQVGGIEALVRTVLRAGDREDITEPAICALRHLTSRHQEAEMAQNAVRLHYGLPVVVKLLHPPSHWPLIKATVGLIRNLALCPANHAPLREQGAIPRLVQLLVRAHQDTQRRTSMGGTQQQFVEGVRMEEIVEGCTGALHILARDVHNRIVIRGLNTIPLFVQLLYSPIENIQRVAAGVLCELAQDKEAAEAIEAEGATAPLTELLHSRNEGVATYAAAVLFRMSEDKPQDYKKRLSVELTSSLFRTEPMAWNETADLGLDIGAQGEPLGYRQDDPSYRSFHSGGYGQDALGMDPMMEHEMGGHHPGADYPVDGLPDLGHAQDLMDGLPPGDSNQLAWFDTDL
notes: also called mEGFP-β-cat^Wt; source: E. coli CK600K or BL21-DE3 Star, purified (Glutathione Sepharose, TEV protease cleavage, gel filtration); not shown: GST (from the vector pGEX-2T); mEGFP, N-terminal, kept
